# According to US20140087995A1 (published 2014):
# Numbered stars: 1 amine (or outer) side, 2 acyl side, 3 side chain; on linkers, the order of the positions; unused ones are H or OH. Bridge positions count the residues as written; N and C are the ends. Side chains are listed from the residue outwards. Ends that are not written are not given here. * marks the point of attachment. C20 diacid = O=C(O)CCCCCCCCCCCCCCCCCCC(=O)*; γGlu = O=C(O)[C@H](CCC(=O)[*:2])N[*:1]; AEEA = NCCOCCOCC(=O)O
# T1: human calcitonin receptor (human, UniProt P30988 25-474)
# T1 construct: whole, on cells; also called hCTR; hCT
# T1 sequence (looked up): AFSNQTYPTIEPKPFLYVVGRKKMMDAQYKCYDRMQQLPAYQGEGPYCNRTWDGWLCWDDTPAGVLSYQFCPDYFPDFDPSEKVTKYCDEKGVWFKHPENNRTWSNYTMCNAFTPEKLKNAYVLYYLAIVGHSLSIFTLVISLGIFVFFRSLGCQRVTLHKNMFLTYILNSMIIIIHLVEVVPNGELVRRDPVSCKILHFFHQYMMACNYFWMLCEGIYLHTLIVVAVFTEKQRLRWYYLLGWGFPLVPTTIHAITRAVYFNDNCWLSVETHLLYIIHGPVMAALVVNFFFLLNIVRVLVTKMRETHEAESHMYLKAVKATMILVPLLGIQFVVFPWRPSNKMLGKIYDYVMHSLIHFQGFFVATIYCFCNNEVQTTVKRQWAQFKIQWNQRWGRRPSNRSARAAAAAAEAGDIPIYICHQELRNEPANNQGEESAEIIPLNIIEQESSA
# T2: human calcitonin receptor (human, UniProt P30988 25-474)
# T2 construct: whole, on cells; also called hCTR; hCT
# T2 sequence (looked up): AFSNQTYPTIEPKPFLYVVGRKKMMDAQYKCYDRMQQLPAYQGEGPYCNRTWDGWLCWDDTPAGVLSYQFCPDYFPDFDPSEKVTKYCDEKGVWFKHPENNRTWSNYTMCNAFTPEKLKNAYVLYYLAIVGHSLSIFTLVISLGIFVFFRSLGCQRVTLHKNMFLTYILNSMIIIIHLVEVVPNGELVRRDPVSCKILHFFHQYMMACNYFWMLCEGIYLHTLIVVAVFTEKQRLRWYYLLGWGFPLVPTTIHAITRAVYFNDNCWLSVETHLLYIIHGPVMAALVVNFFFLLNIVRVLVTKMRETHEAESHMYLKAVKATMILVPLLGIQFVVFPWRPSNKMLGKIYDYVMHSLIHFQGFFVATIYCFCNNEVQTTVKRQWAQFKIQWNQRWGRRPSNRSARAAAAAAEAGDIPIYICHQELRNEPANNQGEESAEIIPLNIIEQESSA
# Legend:
# [1] = biological target: T1, human calcitonin receptor; assay: ratio of IC50 at hCTR to IC50 at the human amylin receptor (reference)
# Method: The resulting pellet was resuspended, homogenized and centrifuged (20.000 rpm, 15 min) in a buffer containing 20 mM Na-HEPES and 0.1 mM EDTA (pH 7.4, buffer 2). The resulting pellet was resuspended in buffer 2 and protein concentration was measured (BCA protein Assay, Pierce). The homogenate was kept cold during the whole procedure. The membranes were kept at −80° C. until use. The assay was performed in a 384 well Optiplate (PerkinElmer) in a total volume of 40 ul. Membranes were mixed with SPA beads. Final concentration of membranes 35 ng/μL final and SPA beads was 0.05 mg/well. Test-compounds were dissolved in DMSO and further diluted in assay buffer (50 mM Hepes, pH 7.4, 1 mM CaCl2, 5 mM MgCl₂, 0.1% OA and 0.02% Tween20). […] The final mixture was incubated with shaking at 400 rpm for 120 min at 25° C. prior to centrifugation (1500 rpm, 10 min). Samples were analyzed on TopCounter™ (Packard). The IC₅₀ was calculated using (one site binding competition analysis) GraphPad Prism5 as a measure of receptor affinity.
# Membranes were prepared in the following way; the cells were rinsed with PBS and incubated with Versene for approximately 5 min before harvesting. The cells were flushed with PBS and the cell-suspension was centrifuged for 5 min at 1000 rpm. Cells were homogenized (Ultrathurrax) in a buffer containing 20 mM Na-HEPES and 10 mM EDTA (pH 7.4) and centrifuged at 20.000 rpm for 15 min. The resulting pellet was resuspended, homogenized and centrifuged (20.000 rpm, 15 min) in a buffer containing 20 mM Na-HEPES and 0.1 mM EDTA (pH 7.4, buffer 2). The resulting pellet was resuspended in buffer 2 and protein concentration was measured (BCA protein Assay, Pierce). The homogenate was kept cold during the whole procedure. The membranes were kept at −80° C. until use. Assay was performed in a 384 well Optiplate (PerkinElmer) in a total volume of 40 ul. Membranes were mixed with SPA beads.
# [2] = biological target: T1, human calcitonin receptor; assay: SPA competition binding, membranes with human calcitonin receptor, displacement of 125I-calcitonin (Assay VII)
# Method: Membranes were prepared in the following way; the cells were rinsed with PBS and incubated with Versene for approximately 5 min before harvesting. The cells were flushed with PBS and the cell-suspension was centrifuged for 5 min at 1000 rpm. Cells were homogenized (Ultrathurrax) in a buffer containing 20 mM Na-HEPES and 10 mM EDTA (pH 7.4) and centrifuged at 20.000 rpm for 15 min. The resulting pellet was resuspended, homogenized and centrifuged (20.000 rpm, 15 min) in a buffer containing 20 mM Na-HEPES and 0.1 mM EDTA (pH 7.4, buffer 2). The resulting pellet was resuspended in buffer 2 and protein concentration was measured (BCA protein Assay, Pierce). The homogenate was kept cold during the whole procedure. The membranes were kept at −80° C. until use. Assay was performed in a 384 well Optiplate (PerkinElmer) in a total volume of 40 ul. Membranes were mixed with SPA beads. Final concentration of membranes 35 ng/μL final and Final concentration of SPA beads was 0.05 mg/well. Test-compounds were dissolved in DMSO and further diluted in assay buffer (50 mM Hepes, pH 7.4, 1 mM CaCl2, 5 mM MgCl₂, 0.1% OA and 0.02% Tween20). […] The final mixture was incubated for 120 min with shaking at 400 rpm at 25° C. prior to centrifugation (1500 rpm, 10 min). Samples were analyzed on TopCounter™ (Packard). The […] was calculated using (one site binding competition analysis) GraphPad Prism5 as a measure of receptor affinity.
# [3] = biological target: T2, human calcitonin receptor; assay: SPA competition with 125I-calcitonin, membranes of BHK hCTR cells (Assay VII)
# Method in brief: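 BHK hCTR membranes 35 ng/μL + SPA beads 0.05 mg/well; buffer 50 mM Hepes pH 7.4, 1 mM CaCl2, 5 mM MgCl₂, 0.1% OA, 0.02% Tween20. 120 min, 25° C., shaking. Scintillation count; IC50 by one-site binding competition.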
Ratio hCT/hAmylin binding [1],IC50 [2] [nM],IC50 [3] [nM],Binder
8,1.14,,"KCNTATCATQRLAEFLRHSSPNFGAIPSSTNVGSNTY (C20 diacid-gGlu on the alpha amino group of the N-terminal residue; disulfide bridge Cys2-Cys7; C-terminal amide, also called compound 9) [N^α1-[(4S)-4-carboxy-4-(19-carboxynonadecanoylamino)butanoyl]-[Glu14,Arg17,Pro21,Pro27]-h-amylin]"
25,21.8,,"KCNTATCATQRLANFLRHSSPNFGAIPSSTNVGSETY (C20 diacid-gGlu on the alpha amino group of the N-terminal residue; disulfide bridge Cys2-Cys7; C-terminal amide, also called compound 23) [N^α1-[(4S)-4-carboxy-4-(19-carboxynonadecanoylamino)butanoyl]-[Arg17,Pro21,Pro27,Glu35]-h-amylin]"
3.6,0.787,,"{C20 diacid-γGlu-AEEA-AEEA}-KCNTATCATQRLAEFLRHSSPNFGAIPSSTNVGSNTP-NH2 (disulfide 2-7; SMILES CC[C@H](C)[C@H](NC(=O)[C@H](C)NC(=O)CNC(=O)[C@H](Cc1ccccc1)NC(=O)[C@H](CC(N)=O)NC(=O)[C@@H]1CCCN1C(=O)[C@H](CO)NC(=O)[C@H](CO)NC(=O)[C@H](Cc1c[nH]cn1)NC(=O)[C@H](CCCNC(=N)N)NC(=O)[C@H](CC(C)C)NC(=O)[C@H](Cc1ccccc1)NC(=O)[C@H](CCC(=O)O)NC(=O)[C@H](C)NC(=O)[C@H](CC(C)C)NC(=O)[C@H](CCCNC(=N)N)NC(=O)[C@H](CCC(N)=O)NC(=O)[C@@H](NC(=O)[C@H](C)NC(=O)[C@@H]1CSSC[C@H](NC(=O)[C@H](CCCCN)NC(=O)COCCOCCNC(=O)COCCOCCNC(=O)CC[C@H](NC(=O)CCCCCCCCCCCCCCCCCCC(=O)O)C(=O)O)C(=O)N[C@@H](CC(N)=O)C(=O)N[C@@H]([C@@H](C)O)C(=O)N[C@@H](C)C(=O)N[C@@H]([C@@H](C)O)C(=O)N1)[C@@H](C)O)C(=O)N1CCC[C@H]1C(=O)N[C@@H](CO)C(=O)N[C@@H](CO)C(=O)N[C@H](C(=O)N[C@@H](CC(N)=O)C(=O)N[C@H](C(=O)NCC(=O)N[C@@H](CO)C(=O)N[C@@H](CC(N)=O)C(=O)N[C@H](C(=O)N1CCC[C@H]1C(N)=O)[C@@H](C)O)C(C)C)[C@@H](C)O, also called compound 20)"
29,19.3,,"KCNTATCATQRLANFLRHSSPNFGAIPSSTNVGRNTY (C20 diacid-gGlu on the alpha amino group of the N-terminal residue; disulfide bridge Cys2-Cys7; C-terminal amide, also called compound 39) [N^α1-[(4S)-4-carboxy-4-(19-carboxynonadecanoylamino)butanoyl]-[Arg17,Pro21,Pro27,Arg34]-h-amylin]"
31.1,17.1,,"KCNTATCATQRLANFLRHSSPNFGAIPSSTNVGHNTY (C20 diacid-gGlu on the alpha amino group of the N-terminal residue; disulfide bridge Cys2-Cys7; C-terminal amide, also called compound 40) [N^α1-[(4S)-4-carboxy-4-(19-carboxynonadecanoylamino)butanoyl]-[Arg17,Pro21,Pro27,His34]-h-amylin]"
,,30.9,"K([γGlu-C20 diacid])CNTATCATQRLANFLRHSSPNFGAIPSSTNVGSNTY-NH2 (disulfide 2-7; N-terminus assumed; SMILES CC[C@H](C)[C@H](NC(=O)[C@H](C)NC(=O)CNC(=O)[C@H](Cc1ccccc1)NC(=O)[C@H](CC(N)=O)NC(=O)[C@@H]1CCCN1C(=O)[C@H](CO)NC(=O)[C@H](CO)NC(=O)[C@H](Cc1c[nH]cn1)NC(=O)[C@H](CCCNC(=N)N)NC(=O)[C@H](CC(C)C)NC(=O)[C@H](Cc1ccccc1)NC(=O)[C@H](CC(N)=O)NC(=O)[C@H](C)NC(=O)[C@H](CC(C)C)NC(=O)[C@H](CCCNC(=N)N)NC(=O)[C@H](CCC(N)=O)NC(=O)[C@@H](NC(=O)[C@H](C)NC(=O)[C@@H]1CSSC[C@H](NC(=O)[C@@H](N)CCCCNC(=O)CC[C@H](NC(=O)CCCCCCCCCCCCCCCCCCC(=O)O)C(=O)O)C(=O)N[C@@H](CC(N)=O)C(=O)N[C@@H]([C@@H](C)O)C(=O)N[C@@H](C)C(=O)N[C@@H]([C@@H](C)O)C(=O)N1)[C@@H](C)O)C(=O)N1CCC[C@H]1C(=O)N[C@@H](CO)C(=O)N[C@@H](CO)C(=O)N[C@H](C(=O)N[C@@H](CC(N)=O)C(=O)N[C@H](C(=O)NCC(=O)N[C@@H](CO)C(=O)N[C@@H](CC(N)=O)C(=O)N[C@H](C(=O)N[C@@H](Cc1ccc(O)cc1)C(N)=O)[C@@H](C)O)C(C)C)[C@@H](C)O, also called compound 48) [N^ε1-[(4S)-4-carboxy-4-(19-carboxynonadecanoylamino)butanoyl]-[Arg17,Pro21,Pro27]-h-amylin]"
,,9.53,"{C20 diacid-γGlu}-GRCNTATCATQRLANFLRHSSPNFGAIPSSTNVGSNTY-NH2 (disulfide 3-8; SMILES CC[C@H](C)[C@H](NC(=O)[C@H](C)NC(=O)CNC(=O)[C@H](Cc1ccccc1)NC(=O)[C@H](CC(N)=O)NC(=O)[C@@H]1CCCN1C(=O)[C@H](CO)NC(=O)[C@H](CO)NC(=O)[C@H](Cc1c[nH]cn1)NC(=O)[C@H](CCCNC(=N)N)NC(=O)[C@H](CC(C)C)NC(=O)[C@H](Cc1ccccc1)NC(=O)[C@H](CC(N)=O)NC(=O)[C@H](C)NC(=O)[C@H](CC(C)C)NC(=O)[C@H](CCCNC(=N)N)NC(=O)[C@H](CCC(N)=O)NC(=O)[C@@H](NC(=O)[C@H](C)NC(=O)[C@@H]1CSSC[C@H](NC(=O)[C@H](CCCNC(=N)N)NC(=O)CNC(=O)CC[C@H](NC(=O)CCCCCCCCCCCCCCCCCCC(=O)O)C(=O)O)C(=O)N[C@@H](CC(N)=O)C(=O)N[C@@H]([C@@H](C)O)C(=O)N[C@@H](C)C(=O)N[C@@H]([C@@H](C)O)C(=O)N1)[C@@H](C)O)C(=O)N1CCC[C@H]1C(=O)N[C@@H](CO)C(=O)N[C@@H](CO)C(=O)N[C@H](C(=O)N[C@@H](CC(N)=O)C(=O)N[C@H](C(=O)NCC(=O)N[C@@H](CO)C(=O)N[C@@H](CC(N)=O)C(=O)N[C@H](C(=O)N[C@@H](Cc1ccc(O)cc1)C(N)=O)[C@@H](C)O)C(C)C)[C@@H](C)O, also called compound 46) [N^-1-[(4S)-4-carboxy-4-(19-carboxynonadecanoylamino)butanoyl]-Gly[Arg1,Arg17,Pro21,Pro27]-h-amylin]"
,,14.8,"K([AEEA-γGlu-C20 diacid])RCNTATCATQRLANFLRHSSPNFGAIPSSTNVGSHTY-NH2 (disulfide 3-8; N-terminus assumed; SMILES CC[C@H](C)[C@H](NC(=O)[C@H](C)NC(=O)CNC(=O)[C@H](Cc1ccccc1)NC(=O)[C@H](CC(N)=O)NC(=O)[C@@H]1CCCN1C(=O)[C@H](CO)NC(=O)[C@H](CO)NC(=O)[C@H](Cc1c[nH]cn1)NC(=O)[C@H](CCCNC(=N)N)NC(=O)[C@H](CC(C)C)NC(=O)[C@H](Cc1ccccc1)NC(=O)[C@H](CC(N)=O)NC(=O)[C@H](C)NC(=O)[C@H](CC(C)C)NC(=O)[C@H](CCCNC(=N)N)NC(=O)[C@H](CCC(N)=O)NC(=O)[C@@H](NC(=O)[C@H](C)NC(=O)[C@@H]1CSSC[C@H](NC(=O)[C@H](CCCNC(=N)N)NC(=O)[C@@H](N)CCCCNC(=O)COCCOCCNC(=O)CC[C@H](NC(=O)CCCCCCCCCCCCCCCCCCC(=O)O)C(=O)O)C(=O)N[C@@H](CC(N)=O)C(=O)N[C@@H]([C@@H](C)O)C(=O)N[C@@H](C)C(=O)N[C@@H]([C@@H](C)O)C(=O)N1)[C@@H](C)O)C(=O)N1CCC[C@H]1C(=O)N[C@@H](CO)C(=O)N[C@@H](CO)C(=O)N[C@H](C(=O)N[C@@H](CC(N)=O)C(=O)N[C@H](C(=O)NCC(=O)N[C@@H](CO)C(=O)N[C@@H](Cc1c[nH]cn1)C(=O)N[C@H](C(=O)N[C@@H](Cc1ccc(O)cc1)C(N)=O)[C@@H](C)O)C(C)C)[C@@H](C)O, also called compound 45)"
